Results published in article PMC4434323.

These sequences were tested against T1, K11D2.4 (K11D2.4) (Caenorhabditis elegans) (UniProt G5EBU1).
T1 sequence: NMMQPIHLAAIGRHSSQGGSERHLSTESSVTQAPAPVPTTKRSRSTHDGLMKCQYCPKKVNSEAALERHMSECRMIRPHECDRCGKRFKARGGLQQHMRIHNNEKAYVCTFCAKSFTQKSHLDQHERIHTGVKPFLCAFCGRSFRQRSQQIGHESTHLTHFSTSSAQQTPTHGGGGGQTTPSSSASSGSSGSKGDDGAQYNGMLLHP

| Sequence | binding signal (PBM E-score (-0.5 to 0.5)) |
| --- | --- |
| AGAAAAAA (double strand) [8-mer AGAAAAAA] | 0.498 |
| AAAAAAAG (double strand) [8-mer AAAAAAAG] | 0.498 |
| TAAAAAAA (double strand) [8-mer TAAAAAAA] | 0.498 |
| AAAAAAAT (double strand) [8-mer AAAAAAAT] | 0.498 |
| ATAAAAAA (double strand) [8-mer ATAAAAAA] | 0.498 |
| AAAAAAAC (double strand) [8-mer AAAAAAAC] | 0.498 |
| GAAAAAAA (double strand) [8-mer GAAAAAAA] | 0.498 |
| CAAAAAAA (double strand) [8-mer CAAAAAAA] | 0.498 |
| AAAAAAAA (double strand) [8-mer AAAAAAAA] | 0.5 |

These sequences were tested against T2, T22C8.4 (T22C8.4) (Caenorhabditis elegans) (UniProt Q22677).
T2 sequence: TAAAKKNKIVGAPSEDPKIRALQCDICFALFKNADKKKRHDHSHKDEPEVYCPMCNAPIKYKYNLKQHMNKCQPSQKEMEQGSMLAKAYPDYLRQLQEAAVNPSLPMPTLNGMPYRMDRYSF

| Sequence | binding signal (PBM E-score (-0.5 to 0.5)) |
| --- | --- |
| GCAGGGGA (double strand) [8-mer GCAGGGGA] | 0.495 |
| GCAGGGGC (double strand) [8-mer GCAGGGGC] | 0.498 |
| CCCTGCTC (double strand) [8-mer CCCTGCTC] | 0.479 |
| AGCAGGGA (double strand) [8-mer AGCAGGGA] | 0.466 |
| AGCAGGGG (double strand) [8-mer AGCAGGGG] | 0.499 |
| CCCCTGCG (double strand) [8-mer CCCCTGCG] | 0.493 |
| CACCCTGC (double strand) [8-mer CACCCTGC] | 0.49 |
| CCCTGCTA (double strand) [8-mer CCCTGCTA] | 0.486 |
| CCCCCTGC (double strand) [8-mer CCCCCTGC] | 0.488 |
| CCCTGCAG (double strand) [8-mer CCCTGCAG] | 0.483 |
| CCCCTGCA (double strand) [8-mer CCCCTGCA] | 0.493 |

The sequences below were run against T3, Y53H1A.2 (Y53H1A.2) (Caenorhabditis elegans) (UniProt B1V8K4).
T3 sequence: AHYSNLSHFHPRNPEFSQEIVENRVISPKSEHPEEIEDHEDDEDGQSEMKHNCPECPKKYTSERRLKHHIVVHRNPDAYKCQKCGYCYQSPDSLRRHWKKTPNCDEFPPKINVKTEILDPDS

| Sequence | binding signal (PBM E-score (-0.5 to 0.5)) |
| --- | --- |
| GGTCGGCA (double strand) [8-mer GGTCGGCA] | 0.481 |
| CGGCCGCC (double strand) [8-mer CGGCCGCC] | 0.489 |
| CGGTCGGC (double strand) [8-mer CGGTCGGC] | 0.487 |
| CGGTGGGC (double strand) [8-mer CGGTGGGC] | 0.491 |
| CGGCGGCC (double strand) [8-mer CGGCGGCC] | 0.485 |
| ACCACCGC (double strand) [8-mer ACCACCGC] | 0.483 |
| CGGCCGAC (double strand) [8-mer CGGCCGAC] | 0.486 |
| CGACCACC (double strand) [8-mer CGACCACC] | 0.486 |
| CGGTCGTC (double strand) [8-mer CGGTCGTC] | 0.483 |
| CGGCCGGC (double strand) [8-mer CGGCCGGC] | 0.486 |
| CCACCACC (double strand) [8-mer CCACCACC] | 0.486 |
| CGGTGGTC (double strand) [8-mer CGGTGGTC] | 0.481 |
| GGTGGGCA (double strand) [8-mer GGTGGGCA] | 0.487 |
| GCGGCCGC (double strand) [8-mer GCGGCCGC] | 0.488 |

The sequences below were run against T4, lin-29 (W03C9.4) (Caenorhabditis elegans) (UniProt G5EGB2).
T4 sequence: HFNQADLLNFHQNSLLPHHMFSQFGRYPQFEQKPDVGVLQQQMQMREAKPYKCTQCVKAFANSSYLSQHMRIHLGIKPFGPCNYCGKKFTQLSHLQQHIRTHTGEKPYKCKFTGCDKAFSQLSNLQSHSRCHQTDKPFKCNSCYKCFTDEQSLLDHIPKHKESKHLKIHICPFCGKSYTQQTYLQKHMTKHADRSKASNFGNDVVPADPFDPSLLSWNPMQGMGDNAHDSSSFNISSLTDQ

| Sequence | binding signal (PBM E-score (-0.5 to 0.5)) |
| --- | --- |
| AGAAAAAA (double strand) [8-mer AGAAAAAA] | 0.494 |
| TATAAAAA (double strand) [8-mer TATAAAAA] | 0.494 |
| GTTTTTTA (double strand) [8-mer GTTTTTTA] | 0.494 |
| AAAAAAAG (double strand) [8-mer AAAAAAAG] | 0.495 |
| TAAAAAAA (double strand) [8-mer TAAAAAAA] | 0.498 |
| AAAAAAAT (double strand) [8-mer AAAAAAAT] | 0.496 |
| GCAAAAAA (double strand) [8-mer GCAAAAAA] | 0.494 |
| GTAAAAAA (double strand) [8-mer GTAAAAAA] | 0.494 |
| CATAAAAA (double strand) [8-mer CATAAAAA] | 0.494 |
| ATAAAAAA (double strand) [8-mer ATAAAAAA] | 0.498 |
| AAAAAAAC (double strand) [8-mer AAAAAAAC] | 0.497 |
| AAAAAACT (double strand) [8-mer AAAAAACT] | 0.495 |
| GAAAAAAA (double strand) [8-mer GAAAAAAA] | 0.495 |
| CAAAAAAA (double strand) [8-mer CAAAAAAA] | 0.496 |
| AAAAAAAA (double strand) [8-mer AAAAAAAA] | 0.499 |

The sequences below were run against T5, ztf-19 (T27B1.2) (Caenorhabditis elegans) (UniProt Q22829).
T5 sequence: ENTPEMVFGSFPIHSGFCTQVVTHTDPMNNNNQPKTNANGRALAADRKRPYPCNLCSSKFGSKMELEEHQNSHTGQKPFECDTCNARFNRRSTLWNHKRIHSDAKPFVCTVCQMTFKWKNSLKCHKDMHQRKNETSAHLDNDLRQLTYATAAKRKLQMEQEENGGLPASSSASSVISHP

| Sequence | binding signal (PBM E-score (-0.5 to 0.5)) |
| --- | --- |
| TGTGTAAA (double strand) [8-mer TGTGTAAA] | 0.491 |
| AGTGTAAA (double strand) [8-mer AGTGTAAA] | 0.494 |
| GTGTAATA (double strand) [8-mer GTGTAATA] | 0.497 |
| ATTACAAC (double strand) [8-mer ATTACAAC] | 0.496 |
| TAGTGTAA (double strand) [8-mer TAGTGTAA] | 0.495 |
| CAGTGTAA (double strand) [8-mer CAGTGTAA] | 0.494 |
| CTTTACAC (double strand) [8-mer CTTTACAC] | 0.494 |
| GTGTAACA (double strand) [8-mer GTGTAACA] | 0.494 |
| AGTGTAAC (double strand) [8-mer AGTGTAAC] | 0.491 |
| ATTACACA (double strand) [8-mer ATTACACA] | 0.493 |
| AGTGTAAT (double strand) [8-mer AGTGTAAT] | 0.497 |
| CGTTGTAA (double strand) [8-mer CGTTGTAA] | 0.493 |
| CATTACAC (double strand) [8-mer CATTACAC] | 0.494 |

What follows are sequences tested against T6, ztf-6 (W06H12.1) (Caenorhabditis elegans) (UniProt G5EC77).
T6 sequence: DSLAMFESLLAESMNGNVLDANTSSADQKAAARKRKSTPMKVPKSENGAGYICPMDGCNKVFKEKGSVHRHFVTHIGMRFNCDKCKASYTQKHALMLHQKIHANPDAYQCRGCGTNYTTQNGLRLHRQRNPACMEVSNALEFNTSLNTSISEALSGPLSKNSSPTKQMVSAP

| Sequence | binding signal (PBM E-score (-0.5 to 0.5)) |
| --- | --- |
| AATTTCAG (double strand) [8-mer AATTTCAG] | 0.493 |
| ATCTGAAA (double strand) [8-mer ATCTGAAA] | 0.492 |
| AGTTTCAG (double strand) [8-mer AGTTTCAG] | 0.496 |
| ATTTCAGC (double strand) [8-mer ATTTCAGC] | 0.492 |
| ATTTCAGA (double strand) [8-mer ATTTCAGA] | 0.491 |
| CGCTGAAA (double strand) [8-mer CGCTGAAA] | 0.49 |
| GCTGAAAA (double strand) [8-mer GCTGAAAA] | 0.492 |
| GTCTGAAA (double strand) [8-mer GTCTGAAA] | 0.495 |
| TGCTGAAA (double strand) [8-mer TGCTGAAA] | 0.494 |
| AGCTGAAA (double strand) [8-mer AGCTGAAA] | 0.491 |
| ATTTTCAG (double strand) [8-mer ATTTTCAG] | 0.493 |
| GTTTCAGA (double strand) [8-mer GTTTCAGA] | 0.494 |
| GGCTGAAA (double strand) [8-mer GGCTGAAA] | 0.491 |
| TCTGAAAA (double strand) [8-mer TCTGAAAA] | 0.492 |
| GCTGAAAC (double strand) [8-mer GCTGAAAC] | 0.495 |
